Source: the DeepSol protein solubility set

Experiment: soluble on expression in E. coli; label from the status in PepcDB or PDB records

Soluble on expression in E. coli, soluble:
MSLNVLSVSSEIYPLIKTGGLADVVGALPIALEAHGVRTRTLIPGYPAVKAAVTDPVKCFEFTDLLGEKADLLEVQHERLDLLILDAPAYYERSGGPYLGQTGKDYPDNWKRFAALSLAAARIGAGVLPGWRPDMVHAHDWQAAMTPVYMRYAETPEIPSLLTIHNIAFQGQFGANIFSKLALPAHAFGMEGIEYYNDVSFLKGGLQTATALSTVSPSYAEEILTAEFGMGLEGVIGSRAHVLHGIVNGIDADVWNPATDHLIHDNYSAANLKNRALNKKAVAEHFRIDDDGSPLFCVISRLTWQKGIDLMAEAVDEIVSLGGRLVVLGAGDVALEGALLAAASRHHGRVGVAIGYNEPLSHLMQAGCDAIIIPSRFEPCGLTQLYALRYGCIPVVARTGGLADTVIDANHAALASKAATGVQFSPVTLDGLKQAIRRTVRYYHDPKLWTQMQKLGMKSDVSWEKSAGLYAALYSQLISKGHEGHHHHHH
SATREWFVMNAQQTKLALESPPLFAVKKDDDKDHTCDTGEEPYALVGSPVFNPLEDYKREVVSIIDEYFSSGDVEVAASDLMDLGLSEYHPYFVKRLVSMAMDRGNKEKEKASVLLSRLYALVVSPDQIRVGFIRLLESVGDLALDIPDAVNVLALFIARAIVDEILPPVFLARAKKTLPHSSQGFQVILVSENSYLSAPHHAELVETKWGGSTHITVEETKRKISEFLNEYVENGDTREACRCIRELGVSFFHHEIVKSGLVLVMESRTSEPLILKLLKEATEEGLISSSQMAKGFSRVADSLDDLSLDIPSAKTLFESIVPKAIIGGWLDEDSFKERSDQNGGSENLRRFKKDAETIIQEYFLSDDIPELIRSLEDLGLPEYNPVFLKKLITLAMDRKNKEKEMASVFLASLHMEMFSTEDFINGFIMLLESAEDTALDILAASDELALFLARAVIDDVLAPLNLEEISNSLPPKSTGSETIRSARSLISARHAGERLLRSWGGGTGWAVEDAKDKIWKLLEEYEVGGVISEACRCIRDLGMPFFNHEVVKKALVMAMEKKNDRMLNLLQECFAEGIITTNQMTKGFGRVKDSLDDLSLDIPNAEEKFNSYVAHAEENGWLHRDFGCSTDS
MFKAIVSAATLRDALDSVSVLVDECKIRLNEESLSIRAVDPANVGMVDLTLDAAAFESYEAHGGVIGVNLSRLEEVAGMAGAGDLIHLTLDEETRKLNIRIDGLSYTLALIDPDSIRQEPDIPDLDLAANIVLEGTHLDRGIKAADMVSDHIRLRVDGAEETFHIEAEGDTDDVDLSLPPADLISIEAGAADSLFSLDYLKDMNKAIPTDAEVTVELGEEFPVKLHYQIAEGMGTITYMLAPRIQSD
HSDPARRGQLSVCDSISEWVTAADKKTAVDMSGGTVTVLEKVPVSKGQLKQYFYETKCNPMGYTKEGCRGIDKRHWNSQCRTTQSYVRALTMDSKKRIGWRFIRIDTSCVCTLTIKRGR
MRGSHHHHHHGSIEGRSAVTCDDYYYGFGCNKFCRPRDDFFGHYACDQNGNKTCMEGWMGPECNRAICRQGCSPKHGSCKLPGDCRCQYGWQGLYCDKCIPHPGCVHGICNEPWQCLCETNWGGQLCDKDLNYCGTHQPCLNGGTCSNTGPDKYQCSCPEGYSGPNCEI
MSDLETVAKFLAESVIASTAKTSERNLRQLETQDGFGLTLLHVIASTNLPLSTRLAGALFFKNFIKRKWVDENGNHLLPANNVELIKKEIVPLMISLPNNLQVQIGEAISSIADSDFPDRWPTLLSDLASRLSNDDMVTNKGVLTVAHSIFKRWRPLFRSDELFLEIKLVLDVFTAPFLNLLKTVDEQITANENNKASLNILFDVLLVLIKLYYDFNCQDIPEFFEDNIQVGMGIFHKYLSYSNPLLEDPDETEHASVLIKVKSSIQELVQLYTTRYEDVFGPMINEFIQITWNLLTSISNQPKYDILVSKSLSFLTAVTRIPKYFEIFNNESAMNNITEQIILPNVTLREEDVELFEDDPIEYIRRDLEGSDTDTRRRACTDFLKELKEKNEVLVTNIFLAHMKGFVDQYMSDPSKNWKFKDLYIYLFTALAINGNITNAGVSSTNNLLNVVDFFTKEIAPDLTSNNIPHIILRVDAIKYIYTFRNQLTKAQLIELMPILATFLQTDEYVVYTYAAITIEKILTIRESNTSPAFIFHKEDISNSTEILLKNLIALILKHGSSPEKLAENEFLMRSIFRVLQTSEDSIQPLFPQLLAQFIEIVTIMAKNPSNPRFTHYTFESIGAILNYTQRQNLPLLVDSMMPTFLTVFSEDIQEFIPYVFQIIAFVVEQSATIPESIKPLAQPLLAPNVWELKGNIPAVTRLLKSFIKTDSSIFPDLVPVLGIFQRLIASKAYEVHGFDLLEHIMLLIDMNRLRPYIKQIAVLLLQRLQNSKTERYVKKLTVFFGLISNKLGSDFLIHFIDEVQDGLFQQIWGNFIITTLPTIGNLLDRKIALIGVLNMVINGQFFQSKYPTLISSTMNSIIETASSQSIANLKNDYVDLDNLEEISTFGSHFSKLVSISEKPFDPLPEIDVNNGVRLYVAEALNKYNAISGNTFLNTILPQLTQENQVKLNQLLVGNRSHHHHHH
MEIGVPKEIKNQEFRVGLSPSSVRTLVEAGHTVFIETQAGIGAGFADQDYVQAGAQVVPSAKDAWSREMVVKVKEPLPAEYDLMQKDQLLFTYLHLAAARELTEQLMRVGLTAIAYETVELPNRSLPLLTPMSIIAGRLSVQFGARFLERQQGGRGVLLGGVPGVKPGKVVILGGGVVGTEAAKMAVGLGAQVQIFDINVERLSYLETLFGSRVELLYSNSAEIETAVAEADLLIGAVLVPGRRAPILVPASLVEQMRTGSVIVDVAVDQGGCVETLHPTSHTQPTYEVFGVVHYGVPNMPGAVPWTATQALNNSTLPYVVKLANQGLKALETDDALAKGLNVQAHRLVHPAVQQVFPDLA
MSLNRDQSDLHIDELLADPFGGNIEIPGSEAVKAEKEQVRLVDVLPEENKEKAIQLAGQIDHKNMQSIVLYGSQAQSKLLNFSHDMINHVQKKDVGEIGEILGELMKKLEQVNPDDLQSKKKGFLARMFGRVSSSLQEVLSKYQKTSVQIDRISLKLEHSKNALISDNKLLEQLYEKNKEYFAALNVYIAAGELKLEELKTKTIPELKQQAESSDHNQMAVQEVNDLIQFADRLDKRVHDLLLSRQITIQSAPQIRLIQNTNQALAEKIQSSIVTAIPLWKNQVAIALTLLRQRNAVDAQQKVSDTTNELLLKNAELLKTNTIETARANERGLVDIDTLKKVQESLISTLEETLTIQEEGRIKRRQAEEELMMMEGDLKQKLITIKEREGHHHHHH

Soluble on expression in E. coli, not soluble:
MIFDKNFSYAFDENACEKCGGKCCTGESGNIFASKEELEVLRKHLNLESKEFAEKYLRKVGFKMSFKEVECEDGFACIFFDTQKRNCSIYDFRPKQCRTFPFWEYFKTHQKELEKECIGICYLSLEHHHHHH
AHHHHHHGSTHIFPEINSISSLLLLYNGRVLANIHDRTIKKVIGFEAIFRDRVIRNDIKMLIELIRKGDEPLEIRGITIEDYAMNLIKGMMKFARPEE
MYILVENAVTSKQLVTGVRTEPHYRYAGYYLKAYEIVANQERDKTKYESLEPAIKALFTLDSEHEKKVRTQLENLKLLTKFKFTGIYTESVDRYNKAVVLQDKGKTEDAETATTNAQT
MGSDKIHHHHHHMKRRILFIHNNLGGGGAEGALIEVLNHLDYNRYDVTLFLLYRTGDFIDRVPPQVHFKHEQFGRFFPGYKGKIAIRCGLRNMLLRCCAKRVFANEKYDTIVSFMESAPAKFHSYILDKGKRNITWVHCDLLNNHYTTGFFLTLKQEQKFYSRMDDVIFVSEDAKKNFSKLFGIDKGRVIYNIIDQRAICKRSKAVSSMPRHRTFTFVNVGSLKEIKRQDRIIETAALLKARGYDADFWLIGKGIWEERLKAQATALNVSDSVHFLGFQSNPYPYVAAADVFLMTSDSEGFPLVVAEAMCLGKAVISTRITGPMEMLGNGRYGILTGFSPEEIANSAISLIEDPKLLSSYQHLAYERSISYFDVNGVMTQIHDVIGN
MGSDKIHHHHHHMGKPRIVILGGGFGGLYTARALHRTFRDTAEIEVITAENYFVFQPLLPEVGAGSVTPIHATSPYRFLLKGVGIRKAMIDSVDFAAKRVTVFQGVQRRPTEVPYDHLVVALGQTVDLSRTPGLEAHALTMKTLEDARRLRAHVIERLEHADITNLPEVKRGALTFTVIGGGFSGIETVGEMAELIDRSLKYYPNVSRDEVRIIVLEFADKVLAEMPEKLRAYAQAQLEKRGVEVCLNTGIASATGTQITTTDGDVIDTRTVVATIGNAPAPVVKRMDLPLTQGRIAVERDLSVPGRDGVWSLGDCALIPMVEDANAREDYAPPTAQFAVREAKQLAANIKRAVDGTALKPFEYTSKGSMASLGARRGIADVMGIRLTGFLAWVLWRAYYVAFLPGFPAKVWVLSHWVLDWVTPRSLVNLSSPKTDASRHIRYAKGDRIYETGNRADTFFTIIEGAVEITNAKGHDGQPTTRRIEPGGHFGERLILGATRRVATARALEDTVVLAMGRDEFLKLTRALPALRDYFEAHLAEKGLDWAPEPDERRDAAE
MSLVDLVTEAKSSGEGVTSPYSRTEHCENIHEYRCDTRVGVIGIDVSKEHLVTSKGRVRKFTNNEKGYEEILTMKPNIIVIEPTGVYSTRPCQYFKERGVKVLLVSLAMERKGRKGKENRFLRRRKTEGHHHHHH
DGLEGMDDPDATSKKVVPLGVEIYEINGPFFFGVADRLKGVLDVIEETPKVFILRMRRVPVIDATGMHALWEFQESCEKRGTILLLSGVSDRLYGALNRFGFIEALGEERVFDHIDKALAYAKLLVETAEER
MGSDKIHHHHHHVVTPEDSPRYPYGNCLYVEDDIPAVLDLGAGGRAFQEIPCEKVQLALISHSHFDHLHGDSFFPRAGLYAGKEESKTYSDENEYLKFHGYELWAEMMPGIKRVAFSEVKPLPDDVPVKPGFRYIPLAGIFKDMERFQLGKTEITAIHLPGHTTGHYGFWIEKEGILFSGDMDLVVAGPWYSSNSADIGQLVSSVQRIREINPGLIVPSHRRLIFDKIEKRLDQYIGVVFKRQERILDLLKEAHTIDELLEYQMVFHGRRDIYLLFWEKMTLRNHIRFLLWEGMVEEVEKGRYKRC
MAHHHHHHMARSLQDPRLSFYCEQYDHIAHRMNHYVLQFYFEDRTVEIREVTKNRLHLKRAHFPHLNRDDFKVGSSLSLLGGVIKLTAYADEVTRELCGERGEVTAVMFGEQLLPQLGRCLAVLTEECGFVALEMQMAWLPVETAAAYGVPPDLVEGRIVVVKCANTNALQRGIDFMARMPGARAAESVEEVGRWEQIVEKAKEQPVAILGDPNSTVVIIKPHALQKLAGGVIVQQLIDAGLEISGISLTNMTSQQANELLKPYKGVLPDFPDTMRSLMGTVWVLQFVSLDEGVDVVSVAREVCGPFDPVIAKELRPTSIRARFGVDRAHNAVHCCDLHEEGPLYSNFFFRPEDVDE
MGSDKIHHHHHHMQWRRVLRFVNMEVVYVLGVKGGIGKTTFSLYFANQLSLTGKKVLYIDHDYFSFGSLILGHNDLGLLEEIENNLPIFSRSLKNINNLYILKLFSNPLDANKDYSLLSNSIPQVVNSIAKMGLDYVILDSSVGILPDNDIVIGLLEELDVEKKGVFLSDMLSVNSTIKYAKLWENAIKYKILVINMVPPIPEDLSEAMKIANKVYDDNNSKLFNTVVVVPFDEKMYNYKPLGNEYENERLNTILSCIVNRCNTLIIN
EILAKDQEAFMQSAKFLKEGKILAIKGIGGFHLMCDAFNEEALKTLRLRKNRPKKPFALMCKDLQSAKELAFIDEKEEALLGGVLAPIVILKAKKAFSLIAPDVDKIGIMLAYTPLHLLLFEYFKGSLVATSANLSGESIIKDEFNLCKKLDKVFDFYLDYDREIINASDDSIAQVVNGETMFLRTSR
